Six molecules from EP4793286A1 (Shanghai Scizeng Medical Technology Co., Ltd., dated 2026) can be followed below.

First the molecules themselves.
T1: cPD-1 ECD-Avi-His (Macaca fascicularis, UniProt Q15116 25-170 (human entry))
T1 construct: tied to the construct by its name only; not shown: Avi tag and His tag
T1 chain: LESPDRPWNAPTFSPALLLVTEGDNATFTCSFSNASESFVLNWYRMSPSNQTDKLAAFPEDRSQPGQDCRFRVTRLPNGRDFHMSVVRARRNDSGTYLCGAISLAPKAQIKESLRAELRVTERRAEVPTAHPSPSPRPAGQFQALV

T2: hCD32B (ECD, His tag, Sino Biological, 10259-H08C) (human, UniProt P31994 43-217)
T2 construct: extracellular domain; Bought protein; not shown: His tag
T2 sequence (looked up): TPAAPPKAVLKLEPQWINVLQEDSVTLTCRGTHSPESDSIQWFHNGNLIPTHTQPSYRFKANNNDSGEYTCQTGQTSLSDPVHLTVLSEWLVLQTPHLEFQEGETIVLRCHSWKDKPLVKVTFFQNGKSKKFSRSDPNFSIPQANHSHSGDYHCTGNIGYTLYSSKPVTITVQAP

T3: hCD32A (167 His, His Tag, Sino Biological, 10374-H08C1) (human, UniProt P12318 34-218)
T3 construct: Bought protein; not shown: His tag
T3 sequence (looked up): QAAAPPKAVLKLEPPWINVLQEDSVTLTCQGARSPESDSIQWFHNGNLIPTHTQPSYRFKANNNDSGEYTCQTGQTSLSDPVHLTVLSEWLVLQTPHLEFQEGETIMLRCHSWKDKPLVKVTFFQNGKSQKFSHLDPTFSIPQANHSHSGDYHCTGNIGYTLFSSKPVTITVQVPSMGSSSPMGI

T4: cPD-1 on CHOS-cPD-1 cells (Macaca fascicularis, UniProt Q15116 25-288 (human entry))
T4 chain: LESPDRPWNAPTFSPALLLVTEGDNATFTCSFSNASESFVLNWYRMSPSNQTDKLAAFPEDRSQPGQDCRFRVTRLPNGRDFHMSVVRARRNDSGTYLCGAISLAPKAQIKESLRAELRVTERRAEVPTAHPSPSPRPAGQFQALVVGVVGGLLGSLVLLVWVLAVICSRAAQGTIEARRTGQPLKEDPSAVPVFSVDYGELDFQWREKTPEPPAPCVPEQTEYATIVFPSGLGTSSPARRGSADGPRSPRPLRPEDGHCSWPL

B1: 1C4-zu1-hIgG1 DD (antibody)
heavy: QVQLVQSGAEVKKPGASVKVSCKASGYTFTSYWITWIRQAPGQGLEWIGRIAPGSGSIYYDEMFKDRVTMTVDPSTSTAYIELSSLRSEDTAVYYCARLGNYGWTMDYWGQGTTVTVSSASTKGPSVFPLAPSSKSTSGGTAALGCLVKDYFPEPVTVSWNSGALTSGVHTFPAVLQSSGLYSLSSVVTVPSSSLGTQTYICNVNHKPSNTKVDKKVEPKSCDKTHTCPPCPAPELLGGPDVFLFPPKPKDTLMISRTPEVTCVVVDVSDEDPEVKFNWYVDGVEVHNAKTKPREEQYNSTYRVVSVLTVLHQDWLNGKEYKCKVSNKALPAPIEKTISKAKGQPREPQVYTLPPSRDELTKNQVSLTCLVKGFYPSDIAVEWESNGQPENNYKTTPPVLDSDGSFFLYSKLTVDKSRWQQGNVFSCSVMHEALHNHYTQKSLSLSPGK
light: DIVMTQSPKSLAVSLGERATINCKASQSVTNNVAWYQQKPGQPPKLLIYYVSNRYTGVPDRFSGSGYGTDFTLTISSLQAEDVAVYFCQQDYSSWTFGGGTKVEIKRTVAAPSVFIFPPSDEQLKSGTASVVCLLNNFYPREAKVQWKVDNALQSGNSQESVTEQDSKDSTYSLSSTLTLSKADYEKHKVYACEVTHQGLSSPVTKSFNRGEC
notes: Fc mutant of 1C4-zu1-hIgG1 with S239D/H268D (EU numbering)
B2: 1B5-zu1-hIgG1 (antibody)
heavy: not shown
light: EIVLTQSPATLSLSPGERATLTCRASSSVSSSYLLWYQQKSGAAPRLWIYSTSNLASGVPARFSGSGSGTDFTLTISSLEPEDFATYYCQQYSGYPLTFGQGTKLEIKRTVAAPSVFIFPPSDEQLKSGTASVVCLLNNFYPREAKVQWKVDNALQSGNSQESVTEQDSKDSTYSLSSTLTLSKADYEKHKVYACEVTHQGLSSPVTKSFNRGEC
notes: Humanized form of B1-1B5-H1L1; human IgG1 / kappa
B3: 1B5-zu1-hIgG1 DD (antibody)
heavy: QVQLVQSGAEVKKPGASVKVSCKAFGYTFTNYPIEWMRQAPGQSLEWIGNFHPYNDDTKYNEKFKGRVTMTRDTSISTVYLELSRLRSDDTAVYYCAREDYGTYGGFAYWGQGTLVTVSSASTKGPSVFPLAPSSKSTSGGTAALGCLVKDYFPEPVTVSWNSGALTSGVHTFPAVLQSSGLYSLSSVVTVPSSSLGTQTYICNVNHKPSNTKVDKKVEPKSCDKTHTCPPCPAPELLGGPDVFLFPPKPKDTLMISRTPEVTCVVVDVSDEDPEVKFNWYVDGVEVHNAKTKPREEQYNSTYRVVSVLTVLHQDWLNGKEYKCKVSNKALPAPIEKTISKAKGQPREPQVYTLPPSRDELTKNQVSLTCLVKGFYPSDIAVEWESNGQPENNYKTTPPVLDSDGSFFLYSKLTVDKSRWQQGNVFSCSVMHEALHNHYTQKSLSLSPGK
light: B2 light
notes: Fc mutant of 1B5-zu1-hIgG1 with S239D/H268D (EU numbering)
B4: 1C4-zu1-hIgG1 (antibody)
heavy: not shown
light: B1 light
notes: Humanized form of B1-1C4-H1L1; human IgG1 / kappa
B5: B1-1B5-H1L1 (antibody, human IgG1, kappa, V domains shown)
VH: EVQLQQSGAELVKPGASVKMSCKAFGYTFTNYPIEWMKQSHGKSLEWIGNFHPYNDDTKYNEKFKGKAKLTVEKSSSTVYLELSRLTSDDSAVYYCAREDYGTYGGFAYWGQGTLVTVSS
VL: EITVTQSPAIMSASPGEKVTMTCRASSSVSSSYLLWYQQKSGASPKLWIYSTSNLASGVPARFSGSGSGTSYSLTISSVEAEDAATYYCQQYSGYPLTFGAGTKLELKR
B6: B1-1C4-H1L1 (antibody, human IgG1, kappa, V domains shown)
VH: EVQLQQSGDDLVKPGASVKLSCKASGYTFTSYWITWIKQRPGQGLEWIGRIAPGSGSIYYDEMFKDKATLTVDPSSSTAYIQLSSLSSEDSAVYFCARLGNYGWTMDYWGQGTSVTVSS
VL: DIVMTQTPKFLLVSAGDRVTITCKASQSVTNNVAWYQQAPGQSPKLLIYYVSNRYTGVPDRFAGSGYGTDFTFTISTVQAEDLAVYFCQQDYSSWTFGGGTKLEIKR

T8 sequence (Q15116 25-288 limits assumed): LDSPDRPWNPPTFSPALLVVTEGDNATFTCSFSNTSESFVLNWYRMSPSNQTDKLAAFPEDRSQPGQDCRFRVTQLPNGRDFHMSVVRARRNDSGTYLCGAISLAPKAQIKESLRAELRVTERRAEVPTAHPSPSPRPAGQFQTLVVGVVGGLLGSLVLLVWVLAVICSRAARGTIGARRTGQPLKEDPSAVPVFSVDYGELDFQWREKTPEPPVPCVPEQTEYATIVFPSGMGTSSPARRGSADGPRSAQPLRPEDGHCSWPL

The target of the first assay is T5, hCD16A(158F)-ECD-C-his (human, UniProt P08637 17-208).
T5 construct: extracellular domain; Homemade; not shown: C-terminal His tag
T5 sequence (P08637 17-208): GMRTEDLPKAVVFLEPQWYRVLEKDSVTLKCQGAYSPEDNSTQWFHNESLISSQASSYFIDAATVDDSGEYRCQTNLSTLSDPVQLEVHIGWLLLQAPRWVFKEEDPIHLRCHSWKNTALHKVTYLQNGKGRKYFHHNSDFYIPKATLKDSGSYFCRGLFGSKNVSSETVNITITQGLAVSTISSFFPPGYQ
Put plainly: SPR; ratio against 1C4-zu1-hIgG1; end of the range assigned by Table 9. In general terms: Surface plasmon resonance follows binding to a sensor surface in real time, without labels.
In the case of B1, the “fold higher affinity than the antibody without DD” value was in the range of 3 to 6 fold.

Another assay deals with T1, cPD-1 ECD-Avi-His. Put plainly: SPR (Biacore 8K), antibody captured on Protein A chip, antigen flowed as analyte.
Turning to B2, binding was put at a Kd of 38.5 nM; the dissociation rate constant (koff) (usually the rate constant with which the complex falls apart) is 0.00841 s⁻¹; the on-rate constant (kon) (in general, the rate constant with which the complex forms) amounted to 219000 M⁻¹ s⁻¹.
As to B3, the dissociation constant (Kd) (in general, the free concentration of one partner at which half of the binding sites on the other are occupied at equilibrium, for simple one-to-one binding) stood at 35.1 nM; the koff came to 0.00856 s⁻¹; the on-rate constant (kon) stood at 243000 M⁻¹ s⁻¹.
Molecule B4 had a Kd of 15.6 nM, a koff of 0.00392 s⁻¹ and a kon of 251000 M⁻¹ s⁻¹.
Taken in the same sequence, the figures for B1 were 15.2 nM, 0.00393 s⁻¹ and 259000 M⁻¹ s⁻¹.

The target in another assay is T6, hCD16A(158V)-ECD-C-his (human, UniProt P08637 17-208).
T6 construct: extracellular domain; Homemade; not shown: C-terminal His tag
T6 sequence (P08637 17-208 F176V): as the sequence (P08637 17-208) above, with F160V counted along it
Put plainly: SPR; ratio against 1B5-zu1-hIgG1; end of the range assigned by Table 10.
In the case of B3, the “fold higher affinity than the antibody without DD” value lay in the range of 3 to 4 fold.

The target of the next assay is T7, hPD-1 on CHOS-hPD-1 cells (Homo sapiens, UniProt Q15116 25-288). Put plainly: cell-based or functional assay.
T7 sequence (Q15116 25-288 limits assumed): as the sequence (Q15116 25-288 limits assumed) above
With B2, the “EC50 of ADCC (LDH release, human NK cells, target cells CHOS-hPD-1)” value (shortened to “EC50 of ADCC”) came to 5.12 pM.
As to B3, the “EC50 of ADCC” value worked out at 0.44 pM.
For B4, the “EC50 of ADCC” value was 1.9 pM.
As for B1, the “EC50 of ADCC” value was determined as 0.33 pM.

For the next assay, the target named is T2, hCD32B (ECD, His tag, Sino Biological, …). Put plainly: SPR (Biacore 8K), His-tagged Fc receptor captured by anti-His antibody on CM5 chip, antibody flowed as analyte.
In turn, B2 came in with a Kd of 13.4 µM.
The same measure, in the same setting: the result for B3 reads 1.53 µM; that for B4, 10 µM; that for B1, 1.68 µM.

For the next assay, the target named is T3, hCD32A (167 His, His Tag, Sino …). Put plainly: SPR; ratio against 1B5-zu1-hIgG1; end of the range assigned by Table 7.
Consider B3, for which the “fold higher affinity than the antibody without DD” value lay in the range of 3 to 4 fold.

A further assay has the same target. Put plainly: SPR (Biacore 8K), His-tagged Fc receptor captured by anti-His antibody on CM5 chip, antibody flowed as analyte.
The molecule B2 came in with a Kd of 5.43 µM.
In turn, B3 yielded a Kd of 1.47 µM.
Molecule B4 gave a dissociation constant (Kd) of 4.94 µM.
Regarding B1, the dissociation constant (Kd) was found to be 1.61 µM.

The target of a further assay is T7, hPD-1 on CHOS-hPD-1 cells. Put plainly: flow cytometry on CHOS-hPD-1 cells, MFI, 4-parameter fit. A general note: In flow cytometry, cells or beads pass a laser one at a time.
Consider B2, for which the response was half-maximal at 11.9 nM (EC50).
The same measure, in the same setting: with B3 the figure was 12.1 nM.
Regarding B4, the EC50 (usually the concentration needed to bring the measured effect to its halfway point) turned out to be 14.3 nM.
Same read-out and setting: the result for B1 reads 13.7 nM.

The target of a further assay is T2, hCD32B (ECD, His tag, Sino Biological, …). Put plainly: SPR; ratio against 1C4-zu1-hIgG1; end of the range assigned by Table 8.
For B1, the “fold higher affinity than the antibody without DD” value was 6 to 9 fold.

A further assay has as its target T4, cPD-1 on CHOS-cPD-1 cells. Put plainly: flow cytometry on CHOS-cPD-1 cells, MFI, 4-parameter fit.
Turning to B2, the midpoint of the response, the EC50, lay at 20.2 nM.
As to B3, the 50% effective concentration (EC50) worked out at 19.9 nM.
B4 displayed a concentration for a half-maximal effect (EC50) of 20.3 nM.
As to B1, the half-maximal effective concentration (EC50) is 20.1 nM.

The target in another assay is T2, hCD32B (ECD, His tag, Sino Biological, …). Put plainly: SPR; ratio against 1B5-zu1-hIgG1; end of the range assigned by Table 8.
In the case of B3, the “fold higher affinity than the antibody without DD” value is 6 to 9 fold.

The target of another assay is T6, hCD16A(158V)-ECD-C-his. Put plainly: SPR; ratio against 1C4-zu1-hIgG1; end of the range assigned by Table 10.
B1: the “fold higher affinity than the antibody without DD” value lay within 3 to 4 fold.

A further assay has as its target T8, PD1 on Jurkat-PD1-NFAT reporter cells (UniProt Q15116 25-288, limits assumed). Put plainly: cell-based or functional assay.
For the molecule B5, the “EC50 of inhibition of Jurkat-PD1-NFAT reporter cell activation” value turned out to be 0.12 nM.
As for B6, the “EC50 of inhibition of Jurkat-PD1-NFAT reporter cell activation” value was 0.14 nM.

Another assay addresses T6, hCD16A(158V)-ECD-C-his. Put plainly: SPR (Biacore 8K), His-tagged Fc receptor captured by anti-His antibody on CM5 chip, antibody flowed as analyte.
B2 showed a Kd of 83 nM, a koff of 0.00798 s⁻¹ and an on-rate (kon) of 96100 M⁻¹ s⁻¹.
Taken in the same sequence, the figures for B3 were 21.5 nM, 0.0103 s⁻¹ and 481000 M⁻¹ s⁻¹.
As for B4, the dissociation constant Kd was 80.2 nM, the koff was determined as 0.00775 s⁻¹ and the kon was 96600 M⁻¹ s⁻¹.
As to B1, binding was characterised by a dissociation constant (Kd) of 25.4 nM, the off-rate constant (koff) came to 0.0113 s⁻¹ and the association rate constant (kon) was 445000 M⁻¹ s⁻¹.

For another assay, the target named is T8, PD1 on Jurkat-PD1-NFAT reporter cells. Put plainly: cell-based or functional assay. This is another data set of the same source.
B2: the “EC50 of inhibition of Jurkat-PD1-NFAT reporter cell activation” value turned out to be 0.13 nM.
Consider B3, for which the “EC50 of inhibition of Jurkat-PD1-NFAT reporter cell activation” value was determined as 0.15 nM.
Consider B4, for which the “EC50 of inhibition of Jurkat-PD1-NFAT reporter cell activation” value was 0.12 nM.
On to B1, for which the “EC50 of inhibition of Jurkat-PD1-NFAT reporter cell activation” value came out at 0.16 nM.

Another assay has as its target T3, hCD32A (167 His, His Tag, Sino …). Put plainly: SPR; ratio against 1C4-zu1-hIgG1; end of the range assigned by Table 7.
Take B1: the “fold higher affinity than the antibody without DD” value is 3 to 4 fold.

The target in a further assay is T9, hPD-1 ECD-Avi-His (human, UniProt Q15116 25-170).
T9 construct: tied to the construct by its name only; not shown: Avi tag and His tag
T9 sequence (Q15116 25-170): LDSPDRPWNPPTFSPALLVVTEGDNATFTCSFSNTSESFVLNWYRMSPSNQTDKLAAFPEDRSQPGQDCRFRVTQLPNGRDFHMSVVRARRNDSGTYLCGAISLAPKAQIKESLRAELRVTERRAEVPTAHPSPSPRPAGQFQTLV
Put plainly: SPR (Biacore 8K), antibody captured on Protein A chip, antigen flowed as analyte.
The molecule B2 returned a Kd of 11.8 nM, an off-rate (koff) of 0.0024 s⁻¹ and an on-rate (kon) of 204000 M⁻¹ s⁻¹.
For the molecule B3, the Kd worked out at 11.1 nM, the koff stood at 0.00231 s⁻¹ and the on-rate constant (kon) stood at 209000 M⁻¹ s⁻¹.
The molecule B4 registered a Kd of 8.26 nM, an off-rate (koff) of 0.00195 s⁻¹ and a kon of 236000 M⁻¹ s⁻¹.
As to B1, the equilibrium dissociation constant (Kd) is 8.05 nM, the koff was determined as 0.00194 s⁻¹ and the kon amounted to 240000 M⁻¹ s⁻¹.

A further assay addresses T5, hCD16A(158F)-ECD-C-his. Put plainly: SPR; ratio against 1B5-zu1-hIgG1; end of the range assigned by Table 9.
With B3, the “fold higher affinity than the antibody without DD” value was in the range of 3 to 6 fold.

The next assay addresses T5, hCD16A(158F)-ECD-C-his. Put plainly: SPR (Biacore 8K), His-tagged Fc receptor captured by anti-His antibody on CM5 chip, antibody flowed as analyte.
B2 registered an equilibrium dissociation constant (Kd) of 326 nM, a koff of 0.03 s⁻¹ and an association rate constant (kon) of 92100 M⁻¹ s⁻¹.
Taken in the same sequence, the figures for B3 were 51.8 nM, 0.0354 s⁻¹ and 684000 M⁻¹ s⁻¹.
B4 showed a dissociation constant Kd of 222 nM, a dissociation rate constant (koff) of 0.0248 s⁻¹ and an on-rate constant (kon) of 112000 M⁻¹ s⁻¹.
B1 had a dissociation constant (Kd) of 62.7 nM, a dissociation rate constant (koff) of 0.0423 s⁻¹ and a kon of 674000 M⁻¹ s⁻¹.
